Our source for the Kd values is publication PMC7335187, “Super-assembly of ER-phagy receptor Atg40 induces local ER remodeling at contacts with forming autophagosomal membranes” (Nature Communications, 2020).

Common to all, as to experiment: ITC
(ITC needs no label: the signal is the heat of the interaction.)

In assay [1] the target is human GABARAP (1-116), O95166. As to conditions: chain shown with the change.
Assay [2] concerns the target T1, Atg8 (1-116) K26P, P38182.
T1 chain: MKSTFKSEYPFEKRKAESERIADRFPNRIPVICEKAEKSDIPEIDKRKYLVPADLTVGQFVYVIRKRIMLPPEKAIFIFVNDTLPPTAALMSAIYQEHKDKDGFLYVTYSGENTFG
Conditions: chain shown with the change; Atg8 (1.8 mM).

For assay [3], the target named is T2, FAM134B^444–470 peptide, Q9H6L5.
T2 chain: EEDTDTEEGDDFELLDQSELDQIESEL
As to conditions: chain shown with the change.

In assay [4] the target is T3, SEC62^355–376 peptide, Q99442.
T3 chain: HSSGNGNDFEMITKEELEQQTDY
As to conditions: chain shown with the change.

The term Kd denotes the equilibrium constant for the complex coming apart.

B1: SEC62^355–376 peptide, Q99442 E364A; E370A (peptide)
chain: GPHSSGNGNDFAMITKEALEQQTDY
The molecule B1 showed a dissociation constant (Kd) in assay [1] of 35.1 µM.

B2: FAM134B^444–470 peptide, Q9H6L5 F455A (peptide)
chain: GPEEDTDTEEGDDAELLDQSELDQIESELY
As for B2, the Kd in assay [1] came to 3.55 µM.

B3: Atg40^237–252 peptide, Q99325 D243A; D247A (peptide)
chain: EFPNDYAFMEAILDET
In assay [2], B3 displayed an equilibrium dissociation constant (Kd) of 83.3 µM.

B4: human GABARAP (1-116), O95166 R67A (protein)
chain: MKFVYKEEHPFEKRRSEGEKIRKKYPDRVPVIVEKAPKARIGDLDKKKYLVPSDLTVGQFYFLIRKAIHLRAEDALFFFVNNVIPPTSATMGQLYQEHHEEDFFLYIAYSDESVYG
In the case of B4, the Kd in assay [3] worked out at 1.88 µM; in assay [4], 9.43 µM.
